Data: publication PMC9482650, “Quantitative fragmentomics allow affinity mapping of interactomes” (Nature Communications, 2022)

T1: APBA3_1, O96018
T1 sequence (O96018 389-490, limits assumed, looked up): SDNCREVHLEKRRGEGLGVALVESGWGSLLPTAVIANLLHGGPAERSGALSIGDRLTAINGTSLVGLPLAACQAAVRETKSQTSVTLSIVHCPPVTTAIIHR

T2: APBA2_1, Q99767
T2 sequence (Q99767 563-664, limits assumed, looked up): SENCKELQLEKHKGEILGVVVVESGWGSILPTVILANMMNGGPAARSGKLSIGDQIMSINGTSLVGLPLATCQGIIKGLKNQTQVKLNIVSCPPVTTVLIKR

T3: GRIP1_7, Q9Y3R0
T3 sequence (Q9Y3R0 999-1096, limits assumed, looked up): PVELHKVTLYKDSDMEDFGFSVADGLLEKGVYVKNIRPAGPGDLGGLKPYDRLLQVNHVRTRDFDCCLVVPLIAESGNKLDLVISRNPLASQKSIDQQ

T4: TIAM2, Q8IVF5
T4 sequence (Q8IVF5 885-986, limits assumed, looked up): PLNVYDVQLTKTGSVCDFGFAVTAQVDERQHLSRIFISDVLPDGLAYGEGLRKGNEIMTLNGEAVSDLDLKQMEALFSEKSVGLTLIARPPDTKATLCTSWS

T5: HTRA4, P83105
T5 sequence (P83105 378-476, limits assumed, looked up): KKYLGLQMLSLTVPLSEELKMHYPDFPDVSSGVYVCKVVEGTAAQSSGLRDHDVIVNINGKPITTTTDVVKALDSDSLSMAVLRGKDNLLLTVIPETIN

T6: RADIL, Q96JH8
T6 sequence (Q96JH8 971-1071, limits assumed, looked up): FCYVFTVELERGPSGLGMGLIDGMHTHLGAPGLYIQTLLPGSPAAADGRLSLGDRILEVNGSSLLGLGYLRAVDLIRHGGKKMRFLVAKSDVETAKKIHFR

T7: MPP6, Q9NZW5
T7 sequence (Q9NZW5 125-219, limits assumed, looked up): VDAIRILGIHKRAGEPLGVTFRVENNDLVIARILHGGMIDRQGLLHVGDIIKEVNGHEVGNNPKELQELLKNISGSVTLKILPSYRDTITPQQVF

T8: PDZD2_2, O15018
T8 sequence (O15018 329-429, limits assumed, looked up): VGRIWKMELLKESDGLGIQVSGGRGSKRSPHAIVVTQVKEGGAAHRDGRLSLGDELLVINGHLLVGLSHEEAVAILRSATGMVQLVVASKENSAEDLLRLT

T9: SNTG1, Q9NSN8
T9 sequence (Q9NSN8 52-150, limits assumed, looked up): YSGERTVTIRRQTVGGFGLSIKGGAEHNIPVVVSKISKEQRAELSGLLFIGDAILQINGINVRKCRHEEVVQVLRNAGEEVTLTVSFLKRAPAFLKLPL

T10: SNTB1, Q13884
T10 sequence (Q13884 107-205, limits assumed, looked up): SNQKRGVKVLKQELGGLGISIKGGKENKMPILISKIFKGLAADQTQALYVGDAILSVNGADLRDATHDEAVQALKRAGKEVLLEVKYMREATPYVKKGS

T11: RAPGEF6, Q8TEU7
T11 sequence (Q8TEU7 525-625, limits assumed, looked up): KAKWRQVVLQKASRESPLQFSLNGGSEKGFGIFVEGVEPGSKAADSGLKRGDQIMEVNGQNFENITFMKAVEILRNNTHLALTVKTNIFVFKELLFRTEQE

T12: LNX2_3, Q8N448
T12 sequence (Q8N448 463-564, limits assumed, looked up): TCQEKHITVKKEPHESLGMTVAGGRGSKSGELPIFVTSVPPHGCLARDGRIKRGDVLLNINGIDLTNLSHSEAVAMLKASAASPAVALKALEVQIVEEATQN


Columns and labels:
Experiment in all cases: holdup assay
Design in all cases: key: below the threshold = too weak to quantify, mostly under pKd 3.1 to 4
Conditions in all cases: plain residues with an end cap or a label only (N-terminal biotin on a linker: ado-ado)
[1] = biological target: T1, APBA3_1, O96018
[2] = biological target: GRIP2_4, Q9C0E4
[3] = biological target: T2, APBA2_1, Q99767
[4] = biological target: T3, GRIP1_7, Q9Y3R0
[5] = biological target: TJP1_3, Q07157
[6] = biological target: T4, TIAM2, Q8IVF5
[7] = biological target: PDLIM1, O00151
[8] = biological target: T5, HTRA4, P83105
[9] = biological target: DLG5_1, Q8TDM6
[10] = biological target: Inadl_5, Q8NI35
[11] = biological target: T6, RADIL, Q96JH8
[12] = biological target: T7, MPP6, Q9NZW5
[13] = biological target: T8, PDZD2_2, O15018
[14] = biological target: GRIP2_5, Q9C0E4
[15] = biological target: LIMK2, P53671
[16] = biological target: GRIP2_6, Q9C0E4
[17] = biological target: FRMPD2_2, Q68DX3
[18] = biological target: T9, SNTG1, Q9NSN8
[19] = biological target: Inadl_2, Q8NI35
[20] = biological target: DLG1_1, Q12959
[21] = biological target: T10, SNTB1, Q13884
[22] = biological target: T11, RAPGEF6, Q8TEU7
[23] = biological target: DLG4_1, P78352
[24] = biological target: T12, LNX2_3, Q8N448
[25] = biological target: Inadl_3, Q8NI35
Inadl_3, Q8NI35, sequence (Q8NI35 359-469): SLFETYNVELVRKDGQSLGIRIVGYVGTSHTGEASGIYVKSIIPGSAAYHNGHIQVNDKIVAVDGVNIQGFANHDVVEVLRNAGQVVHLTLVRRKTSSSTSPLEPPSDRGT

PDLIM1, O00151, sequence (O00151 1-87): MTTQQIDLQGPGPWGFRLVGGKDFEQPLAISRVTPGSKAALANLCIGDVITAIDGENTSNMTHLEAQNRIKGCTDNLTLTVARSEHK
Inadl_5, Q8NI35, sequence (Q8NI35 673-780): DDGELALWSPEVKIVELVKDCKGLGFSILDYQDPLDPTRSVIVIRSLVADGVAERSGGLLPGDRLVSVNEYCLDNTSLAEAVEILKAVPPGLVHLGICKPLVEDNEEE
GRIP2_5, Q9C0E4, sequence (Q9C0E4 544-642): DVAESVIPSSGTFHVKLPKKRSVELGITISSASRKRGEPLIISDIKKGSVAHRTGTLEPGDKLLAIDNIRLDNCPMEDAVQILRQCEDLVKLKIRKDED
DLG4_1, P78352, sequence (P78352 62-152): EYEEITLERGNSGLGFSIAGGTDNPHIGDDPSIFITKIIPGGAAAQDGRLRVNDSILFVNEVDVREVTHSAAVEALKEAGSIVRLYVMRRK
FRMPD2_2, Q68DX3, sequence (Q68DX3 944-1038): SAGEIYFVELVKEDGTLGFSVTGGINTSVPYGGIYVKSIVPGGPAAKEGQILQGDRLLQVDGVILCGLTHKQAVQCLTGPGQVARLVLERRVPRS
LIMK2, P53671, sequence (P53671 143-248): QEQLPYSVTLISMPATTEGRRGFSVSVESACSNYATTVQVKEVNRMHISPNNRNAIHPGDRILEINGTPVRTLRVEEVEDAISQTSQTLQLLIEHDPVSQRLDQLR
TJP1_3, Q07157, sequence (Q07157 416-512): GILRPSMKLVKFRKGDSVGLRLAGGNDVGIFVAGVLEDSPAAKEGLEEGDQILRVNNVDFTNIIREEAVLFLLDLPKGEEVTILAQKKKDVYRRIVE
Inadl_2, Q8NI35, sequence (Q8NI35 238-335): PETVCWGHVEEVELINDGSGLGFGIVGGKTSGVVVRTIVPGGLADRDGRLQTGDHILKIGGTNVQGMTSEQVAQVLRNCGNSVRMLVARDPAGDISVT
GRIP2_4, Q9C0E4, sequence (Q9C0E4 446-548): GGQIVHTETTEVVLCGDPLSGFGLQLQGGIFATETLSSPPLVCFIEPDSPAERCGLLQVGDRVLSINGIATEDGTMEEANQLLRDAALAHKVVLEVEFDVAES
DLG5_1, Q8TDM6, sequence (Q8TDM6 617-713): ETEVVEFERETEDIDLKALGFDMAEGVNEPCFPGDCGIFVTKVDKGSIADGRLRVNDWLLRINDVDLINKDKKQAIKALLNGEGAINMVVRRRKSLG
GRIP2_6, Q9C0E4, sequence (Q9C0E4 648-740): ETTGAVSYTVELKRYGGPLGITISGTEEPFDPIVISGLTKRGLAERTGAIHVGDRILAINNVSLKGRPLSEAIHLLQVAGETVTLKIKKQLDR

Binder | pKd [1] | pKd [2] | pKd [3] | pKd [4] | pKd [5] | pKd [6] | pKd [7] | pKd [8] | pKd [9] | pKd [10] | pKd [11] | pKd [12] | pKd [13] | pKd [14] | pKd [15] | pKd [16] | pKd [17] | pKd [18] | pKd [19] | pKd [20] | further results
SSALYGESDL [ACTN2, P35609] | below the threshold | below the threshold | below the threshold | below the threshold | below the threshold | 4.18 | 4.75 | below the threshold | below the threshold | below the threshold | below the threshold | below the threshold | below the threshold | below the threshold | below the threshold | below the threshold | below the threshold | 4.12 | below the threshold | below the threshold | pKd [21]: 4.05; pKd [22]: 3.6; pKd [23]: below the threshold; pKd [24]: below the threshold; pKd [25]: below the threshold
NLSIEKETKL [ASNSD1, Q9NWL6] | below the threshold | below the threshold | below the threshold | below the threshold | below the threshold | 3.94 | below the threshold | below the threshold | below the threshold | below the threshold | below the threshold | below the threshold | 3.83 | below the threshold | below the threshold | below the threshold | below the threshold | 4 | below the threshold | below the threshold | pKd [21]: 5.22; pKd [22]: below the threshold; pKd [23]: below the threshold; pKd [24]: below the threshold; pKd [25]: below the threshold
SKENVQETQI [LRRC4B, Q9NT99] | below the threshold | below the threshold | below the threshold | below the threshold | below the threshold | 4.1 | below the threshold | below the threshold | below the threshold | below the threshold | below the threshold | below the threshold | 3.97 | below the threshold | below the threshold | below the threshold | 3.92 | 4.94 | below the threshold | 4.23 | pKd [21]: 5.07; pKd [22]: 3.52; pKd [23]: 4.02; pKd [24]: below the threshold; pKd [25]: below the threshold
GQEEQVTTRL [TRPC5, Q9UL62] | below the threshold | below the threshold | below the threshold | below the threshold | below the threshold | 3.65 | below the threshold | below the threshold | below the threshold | below the threshold | below the threshold | below the threshold | below the threshold | below the threshold | below the threshold | below the threshold | below the threshold | below the threshold | below the threshold | below the threshold | pKd [21]: 4.04; pKd [22]: below the threshold; pKd [23]: below the threshold; pKd [24]: below the threshold; pKd [25]: below the threshold
